Measurements published in article PMC3048900.

Assays:
Asp19 = Asp19 (UniProt position 362, WTGMIDGWYGY); test: NMR; settings: DPC micelle-bound helical hairpin
Glu11 = Glu11 (UniProt position 354, IAGFIEGGWTG); test: NMR; settings: DPC micelle-bound helical hairpin

“Hemagglutinin HA2 fusion peptide HAfp23 (Influenza A virus (serotype H1; strain not stated))” was tested. Which pKa (Asp19) did it give?
Its pKa is 4.35±0.02.

And the pKa (Glu11)?
Its pKa is 5.31±0.01.
